Blank lines part the entries; values can stand above or below the binder they belong to.
How the values were obtained:
KCK-FGF1.E [1] = molecular target: KCK-FGF1.E (UniProt P05230); assay: BLI; deglycosylated FGFR1-Fc
T-Fc [2] = assay: BLI; deglycosylated FGFR1-Fc
T-Fc [3] = assay: BLI
KCK-FGF1.E [4] = molecular target: KCK-FGF1.E (UniProt P05230); assay: BLI

- koff (KCK-FGF1.E [1]): 0.00222 s⁻¹
- Kd (T-Fc [2]): 0.669 nM
- koff (T-Fc [2]): 0.000448 s⁻¹
B1: de-glycosylated FGFR1-Fc (Fc fusion)
chain: RPSPTLPEQAQPWGAPVEVESFLVHPGDLLQLRCRLRDDVQSINWLRDGVQLAESNRTRITGEEVEVQDSVPADSGLYACVTSSPSGSDTTYFSVNVSDALPSSEDDDDDDDSSSEEKETDNTKPNRMPVAPYWTSPEKMEKKLHAVPAAKTVKFKCPSSGTPNPTLRWLKNGKEFKPDHRIGGYKVRYATWSIIMDSVVPSDKGNYTCIVENEYGSINHTYQLDVVERSPHRPILQAGLPANKTVALGSNVEFMCKVYSDPQPHIQWLKHIEVNGSKIGPDNLPYVQILKTAGVNTTDKEMEVLHLRNVSFEDAGEYTCLAGNSIGLSHHSAWLTVLEALEERPAVMTSPLYLE
modifications: N-glycans enzymatically removed with PNGase F

- Kd (T-Fc [3]): 0.246 nM
- Kd (KCK-FGF1.E [4]): 3.19 nM
- koff (KCK-FGF1.E [4]): 0.000304 s⁻¹
B2: Fully glycosylated extracellular domain of FGFR1 fused to the Fc fragment of human IgG1: FGFR1 IIIc (FGFR1-Fc) (Fc fusion)
chain: B1 chain
modifications: N-glycosylated (fully glycosylated)
